The values below come from patent US20150266977A1 (AbbVie / Abbott, published 2015).

T1: recombinant mouse sclerostin (mouse, UniProt Q99P68 24-211)
T1 construct: also called ms sclerostin; murine sclerostin
T1 sequence (looked up): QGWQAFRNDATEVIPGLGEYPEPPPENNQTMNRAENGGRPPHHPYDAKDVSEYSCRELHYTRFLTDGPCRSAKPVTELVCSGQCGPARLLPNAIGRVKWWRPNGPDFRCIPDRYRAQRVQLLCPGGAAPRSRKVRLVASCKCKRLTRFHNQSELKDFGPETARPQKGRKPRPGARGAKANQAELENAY

T2: recombinant rat sclerostin (rat, UniProt Q99P67 24-213, limits assumed)
T2 sequence (looked up): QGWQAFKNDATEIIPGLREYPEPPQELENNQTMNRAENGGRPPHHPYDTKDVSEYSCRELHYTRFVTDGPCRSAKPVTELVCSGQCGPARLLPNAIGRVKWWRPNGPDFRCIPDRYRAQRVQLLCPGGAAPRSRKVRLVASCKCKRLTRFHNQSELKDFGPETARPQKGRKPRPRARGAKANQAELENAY

T3: recombinant human sclerostin (human, UniProt Q9BQB4 24-213)
T3 construct: biotinylated in the ELISAs; also called hu sclerostin; hu scl
T3 sequence: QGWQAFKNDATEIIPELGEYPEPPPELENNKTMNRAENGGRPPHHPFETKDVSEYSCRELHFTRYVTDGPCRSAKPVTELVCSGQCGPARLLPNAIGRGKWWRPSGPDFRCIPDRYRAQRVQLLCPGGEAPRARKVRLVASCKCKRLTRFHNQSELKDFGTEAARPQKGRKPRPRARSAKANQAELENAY

B1: MSL10-AM9 (antibody, V domains shown)
VH: EVQLVESGGGLVQPGRSLRLSCAASGFTFDDYALHWVRQAPGKGLEWVSGIGWDDDMIDYADSVKGRFTISRDNAKNSLYLQMNSLRVEDTALYYCAGNNRGYGGLDVWGQGTTVTVSS
VL: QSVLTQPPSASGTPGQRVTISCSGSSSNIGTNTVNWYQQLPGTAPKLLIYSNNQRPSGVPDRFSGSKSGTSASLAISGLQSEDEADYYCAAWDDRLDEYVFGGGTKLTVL
B2: MSL10-AM11 (antibody, V domains shown)
VH: B1 VH with G52S, D54H, D55G, M57F
VL: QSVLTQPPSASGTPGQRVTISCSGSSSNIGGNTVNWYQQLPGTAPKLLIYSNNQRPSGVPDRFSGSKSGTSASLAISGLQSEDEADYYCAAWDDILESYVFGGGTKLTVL
B3: MSL10-AM7 (antibody, V domains shown)
VH: B1 VH with D30E, D54N, M57E, A75S
VL: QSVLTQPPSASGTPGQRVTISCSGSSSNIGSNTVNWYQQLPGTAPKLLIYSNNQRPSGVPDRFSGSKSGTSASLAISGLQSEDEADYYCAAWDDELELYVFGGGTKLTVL
B4: MSL10-AM6 (antibody, V domains shown)
VH: B1 VH with D31Q, G52N, D55G, M57Y, N100I
VL: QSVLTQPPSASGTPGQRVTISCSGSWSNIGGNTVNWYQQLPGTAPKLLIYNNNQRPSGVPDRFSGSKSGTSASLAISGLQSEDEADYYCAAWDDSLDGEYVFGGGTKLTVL
B5: MSL10-AM8 (antibody, V domains shown)
VH: B1 VH with D30E, D55R, M57F, N100K, R101I
VL: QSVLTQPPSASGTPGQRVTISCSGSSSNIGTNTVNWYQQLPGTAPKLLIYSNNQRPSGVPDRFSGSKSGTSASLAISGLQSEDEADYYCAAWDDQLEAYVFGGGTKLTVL
B6: AE10-6-AM6 (antibody, V domains shown)
VH: EVQLVQSGAEVKKPGASVKVSCKVSGYTLSELSMHWVRQAPGKGLEWMGGFDPEGGETIYAQKFQGRVTMTEDTSTDTAYMELSSLRSEDTAVYYCATDTEGYWEKFFQHWGQGTLVTVSS
VL: QAVVTQEPSLTVSPGGTVTLTCGSSTGAVTIDHYPYWFQQKPGQAPRTLISDTDDKHSWTPARFSGSLLGGKAALTLSGAQPEDEAEYYCLLDYGGTFVFGGGTKLTVL
notes: converted into IgG; also called rHC + LC S4 clone 119
B7: AE10-6-AM8 (antibody, V domains shown)
VH: B6 VH with M34I, G55D, T100S, E101A, E105Y
VL: B6 VL with T97S
notes: converted into IgG
B8: AE10-6-AM7 (antibody, V domains shown)
VH: B6 VH with S30T, G55D, E101V
VL: B6 VL with A28T, T97R
notes: converted into IgG; also called rHC + LC S4 clone 131

Substitutions are numbered along the chain they refer to.

The target of the first assay is T1, recombinant mouse sclerostin. As to the kind of experiment: SPR.
With B1, the binding result was “no binding”.
With B2, the binding result is “no binding”.
For B3, the binding result is “no binding”.
Same read-out and setting: as for B4, the entry is “no binding”.
Still for that read-out and setting: as for B5, the entry is “no binding”.

The target in a further assay is T2, recombinant rat sclerostin. As to the kind of experiment: SPR.
As for B1, the binding result was “no binding”.
The same measure, in the same setting: as for B2, the entry is “no binding”.
Still for that read-out and setting: then B3, with “no binding”; and B4, with “no binding”.
As to B5, the binding result was “no binding”.

For another assay, the target named is T3, recombinant human sclerostin. The experiment in a line: SPR. How it is done: (§1) Approximately 10,000 RU (or 3000 RU when CM3 chip was used) of goat anti-mouse or anti-human IgG (Fcγ) fragment specific polyclonal antibody (Pierce Biotechnology Inc, Rockford, Ill.) diluted in 10 mM sodium acetate (pH 4.5) was directly immobilized across a CM5 (or CM3) research grade biosensor chip using a standard amine coupling kit according to manufacturer's instructions and procedures at 15 μg/ml. Unreacted moieties on the biosensor surface were blocked with ethanolamine. Modified carboxymethyl dextran surface in flowcells 2, 3 and 4 were used as a reaction surface. Modified carboxymethyl dextran in flow cell 1 was used as the reference surface. Biaevaluation T100 software version 2.0.2, GE Healthcare Life Sciences was used to simultaneously fit association and dissociation phases of all injections (using 1:1 fit analysis with local Rmax). Purified antibodies were diluted in running buffer for capture across goat anti-mouse or anti-human IgG specific reaction surfaces. Antibodies to be captured as a ligand (1 μg/ml) were injected over reaction matrices at a flow rate of 10 μl/minute. The association and dissociation rate constants, kon (unit M-1 s-1) and koff (unit s-1) were determined under a continuous flow rate of 50 μl/minute. […] At the end of each cycle the surfaces were regenerated with 10 s injection of 50 mM NaOH or/and by 10 s injection of 10 mM Glycine pH1.5 at a flow rate of 100 μl/min. Instrument appropriate Biaevaluation software, GE Healthcare Life Sciences was used to simultaneously fit association and dissociation constants as well as KD (using 1:1 global fit analysis with local Rₘₐₓ). Binding was recorded as a function of time and kinetic rate constants are calculated. In this assay, on-rates as fast as 10⁷ M⁻¹ s⁻¹ and off-rates as slow as 10⁻⁶ s⁻¹ can be measured.
For the molecule B1, the Kd turned out to be 0.054 nM, the koff turned out to be 5.2e-06 s⁻¹ and the kon was 96000 M⁻¹ s⁻¹.
In the case of B2, the Kd turned out to be 0.85 nM, the koff amounted to 7.4e-05 s⁻¹ and the kon came out at 88000 M⁻¹ s⁻¹.
Take B3: the Kd amounted to 0.42 nM, the koff stood at 7.2e-05 s⁻¹ and the association rate constant (kon) was 170000 M⁻¹ s⁻¹.
As to B4, the dissociation constant (Kd) stood at 3.4 nM, the off-rate constant (koff) is 0.00055 s⁻¹ and the kon stood at 170000 M⁻¹ s⁻¹.
Regarding B5, the Kd is 0.73 nM, the koff came to 7.7e-05 s⁻¹ and the kon came to 110000 M⁻¹ s⁻¹.

The target is the same in another assay. The experiment in a line: SPR. The source holds these as a separate data set. How it is done:
as §1, with “The binding of antibodies or anti-sclerostin-TNF DVD to purified recombinant human, cynomolgus monkey (cyno), rat and mouse sclerostin and TNFα was determined by surface plasmon resonance-based measurements with a Biacore T100 or T200 instruments (GE Healthcare Life Sciences, Piscataway, N.J., USA) using running HBS-EP+ (10 mM HEPES [pH 7.4], 150 mM NaCl, 3 mM EDTA, and 0.005% surfactant P20) containing additional 150 mM NaCl, and/or 10 mg/ml carboxymethyl dextran, 0.1 mg/ml BSA at 25° C. All chemicals were obtained from GE Healthcare Life Sciences, Piscataway, N.J., USA or otherwise from a different source as described in the text. Approximately” for “Approximately”, “μl/min.” for “μl/min. Instrument appropriate Biaevaluation software, GE Healthcare Life Sciences was used to simultaneously fit association and dissociation constants as well as KD (using 1:1 global fit analysis with local Rₘₐₓ). Binding was recorded as a function of time and kinetic rate constants are calculated. In this assay, on-rates as fast as 10⁷ M⁻¹ s⁻¹ and off-rates as slow as 10⁻⁶ s⁻¹ can be measured.”
As to B6, the Kd came to 0.0013 nM, the koff was 1.2e-05 s⁻¹ and the kon turned out to be 9.1e+06 M⁻¹ s⁻¹.
For B7, in that order: 0.0013 nM, 9.7e-06 s⁻¹ and 7.4e+06 M⁻¹ s⁻¹.
B8: the dissociation constant Kd turned out to be 0.0003 nM, the koff turned out to be 2.1e-06 s⁻¹ and the kon worked out at 7.1e+06 M⁻¹ s⁻¹.

In a further assay the target is T4, recombinant cynomolgus monkey sclerostin (cynomolgus monkey).
T4 construct: also called cyno sclerostin; Cyno sclerostin
The experiment in a line: SPR. How it is done:
as §1, with “The binding of antibodies or anti-sclerostin-TNF DVD to purified recombinant human, cynomolgus monkey (cyno), rat and mouse sclerostin and TNFα was determined by surface plasmon resonance-based measurements with a Biacore T100 or T200 instruments (GE Healthcare Life Sciences, Piscataway, N.J., USA) using running HBS-EP+ (10 mM HEPES [pH 7.4], 150 mM NaCl, 3 mM EDTA, and 0.005% surfactant P20) containing additional 150 mM NaCl, and/or 10 mg/ml carboxymethyl dextran, 0.1 mg/ml BSA at 25° C. All chemicals were obtained from GE Healthcare Life Sciences, Piscataway, N.J., USA or otherwise from a different source as described in the text. Approximately” for “Approximately”, “μl/min.” for “μl/min. Instrument appropriate Biaevaluation software, GE Healthcare Life Sciences was used to simultaneously fit association and dissociation constants as well as KD (using 1:1 global fit analysis with local Rₘₐₓ). Binding was recorded as a function of time and kinetic rate constants are calculated. In this assay, on-rates as fast as 10⁷ M⁻¹ s⁻¹ and off-rates as slow as 10⁻⁶ s⁻¹ can be measured.”
Turning to B6, the Kd was found to be 0.00088 nM, the off-rate constant (koff) came out at 7e-06 s⁻¹ and the kon was 7.9e+06 M⁻¹ s⁻¹.
Consider B7, for which the dissociation constant (Kd) was determined as 0.00039 nM, the dissociation rate constant (koff) turned out to be 3e-06 s⁻¹ and the kon was found to be 7.7e+06 M⁻¹ s⁻¹.
In the same order, the values of B8 are < 0.00014 nM, < 1e-07 s⁻¹ and 7e+06 M⁻¹ s⁻¹.

The target in a further assay is T1, recombinant mouse sclerostin. The experiment in a line: SPR. The source holds these as a separate data set. On the procedure:
as §1, with “The binding of antibodies or anti-sclerostin-TNF DVD to purified recombinant human, cynomolgus monkey (cyno), rat and mouse sclerostin and TNFα was determined by surface plasmon resonance-based measurements with a Biacore T100 or T200 instruments (GE Healthcare Life Sciences, Piscataway, N.J., USA) using running HBS-EP+ (10 mM HEPES [pH 7.4], 150 mM NaCl, 3 mM EDTA, and 0.005% surfactant P20) containing additional 150 mM NaCl, and/or 10 mg/ml carboxymethyl dextran, 0.1 mg/ml BSA at 25° C. All chemicals were obtained from GE Healthcare Life Sciences, Piscataway, N.J., USA or otherwise from a different source as described in the text. Approximately” for “Approximately”, “μl/min.” for “μl/min. Instrument appropriate Biaevaluation software, GE Healthcare Life Sciences was used to simultaneously fit association and dissociation constants as well as KD (using 1:1 global fit analysis with local Rₘₐₓ). Binding was recorded as a function of time and kinetic rate constants are calculated. In this assay, on-rates as fast as 10⁷ M⁻¹ s⁻¹ and off-rates as slow as 10⁻⁶ s⁻¹ can be measured.”
As for B6, the Kd was determined as 0.027 nM, the koff was 0.00087 s⁻¹ and the kon amounted to 3.2e+07 M⁻¹ s⁻¹.
In the same order, the values of B7 are 0.0074 nM, 8.2e-05 s⁻¹ and 1.1e+07 M⁻¹ s⁻¹.
As for B8, the Kd came out at 0.0093 nM, the koff was 0.00012 s⁻¹ and the kon is 1.3e+07 M⁻¹ s⁻¹.

The target of another assay is T2, recombinant rat sclerostin. As to the kind of experiment: SPR. The source holds these as a separate data set. On the procedure:
as §1, with “The binding of antibodies or anti-sclerostin-TNF DVD to purified recombinant human, cynomolgus monkey (cyno), rat and mouse sclerostin and TNFα was determined by surface plasmon resonance-based measurements with a Biacore T100 or T200 instruments (GE Healthcare Life Sciences, Piscataway, N.J., USA) using running HBS-EP+ (10 mM HEPES [pH 7.4], 150 mM NaCl, 3 mM EDTA, and 0.005% surfactant P20) containing additional 150 mM NaCl, and/or 10 mg/ml carboxymethyl dextran, 0.1 mg/ml BSA at 25° C. All chemicals were obtained from GE Healthcare Life Sciences, Piscataway, N.J., USA or otherwise from a different source as described in the text. Approximately” for “Approximately”, “μl/min.” for “μl/min. Instrument appropriate Biaevaluation software, GE Healthcare Life Sciences was used to simultaneously fit association and dissociation constants as well as KD (using 1:1 global fit analysis with local Rₘₐₓ). Binding was recorded as a function of time and kinetic rate constants are calculated. In this assay, on-rates as fast as 10⁷ M⁻¹ s⁻¹ and off-rates as slow as 10⁻⁶ s⁻¹ can be measured.”
In the case of B6, the Kd was found to be 0.098 nM, the dissociation rate constant (koff) came out at 0.00018 s⁻¹ and the kon is 1.9e+06 M⁻¹ s⁻¹.
Turning to B7, the dissociation constant (Kd) is 0.034 nM, the off-rate (koff) was found to be 5.9e-05 s⁻¹ and the on-rate constant (kon) was 1.8e+06 M⁻¹ s⁻¹.
For B8, in that order: 0.026 nM, 4.6e-05 s⁻¹ and 1.8e+06 M⁻¹ s⁻¹.
